The target in test [1] is T1, rat MuSK (rat, UniProt Q62838 22-494, limits assumed).
T1 construct: Coated on Biacore chip (200RU) or ELISA plate
T1 sequence (looked up): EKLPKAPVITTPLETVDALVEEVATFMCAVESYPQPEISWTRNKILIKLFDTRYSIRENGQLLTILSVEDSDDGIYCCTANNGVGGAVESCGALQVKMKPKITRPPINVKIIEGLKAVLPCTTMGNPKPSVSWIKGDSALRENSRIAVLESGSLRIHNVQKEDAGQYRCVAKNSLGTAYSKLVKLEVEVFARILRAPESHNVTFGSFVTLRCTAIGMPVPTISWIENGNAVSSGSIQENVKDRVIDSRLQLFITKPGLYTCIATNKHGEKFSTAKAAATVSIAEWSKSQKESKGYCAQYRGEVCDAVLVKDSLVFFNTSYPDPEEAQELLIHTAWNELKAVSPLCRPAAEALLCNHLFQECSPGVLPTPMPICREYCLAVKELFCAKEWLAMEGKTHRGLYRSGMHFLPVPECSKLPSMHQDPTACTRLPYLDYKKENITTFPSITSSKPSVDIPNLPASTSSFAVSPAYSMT
Kind of test: Biacore, MuSK on chip (200RU), 66.7 nM mAb, dissociation pH 7.4. As for the experimental part: (§1) For affinity determination, a CMS chip was coated with cynomolgus monkey, rat and mouse MuSK (200RU) and 66.7 nM of antibody was applied and kinetic parameters calculated (Table 8). The following conclusions could be drawn: (1) 3B2g1m3 and 3B2g2m3 (m3 variants) show significant drop in affinity for MuSK for all species tested; (2) 3B2g1m2 and 3B2g2m2 (m2 variants) show some drop in affinity for MuSK; (3) 3B2g1m1, 3B2g2m1, 3B2g1m4, 3B2g2m4 (ml and m4 variants) show no drop in affinity for MuSK for all species tested; and (4) for all clones there is no difference between g1 and g2 variants (VL methionine versus serine in CDR3).
(In general: SPR reads the build-up and loss of mass on a sensor chip optically.)

Test [2] addresses T2, mouse MuSK (mouse, UniProt Q61006 22-494, limits assumed).
T2 construct: Coated on ELISA plates or on the Biacore chip; also called full length mouse MuSK; mouse MuSK (in house produced in HEK293 cells)
T2 sequence (looked up): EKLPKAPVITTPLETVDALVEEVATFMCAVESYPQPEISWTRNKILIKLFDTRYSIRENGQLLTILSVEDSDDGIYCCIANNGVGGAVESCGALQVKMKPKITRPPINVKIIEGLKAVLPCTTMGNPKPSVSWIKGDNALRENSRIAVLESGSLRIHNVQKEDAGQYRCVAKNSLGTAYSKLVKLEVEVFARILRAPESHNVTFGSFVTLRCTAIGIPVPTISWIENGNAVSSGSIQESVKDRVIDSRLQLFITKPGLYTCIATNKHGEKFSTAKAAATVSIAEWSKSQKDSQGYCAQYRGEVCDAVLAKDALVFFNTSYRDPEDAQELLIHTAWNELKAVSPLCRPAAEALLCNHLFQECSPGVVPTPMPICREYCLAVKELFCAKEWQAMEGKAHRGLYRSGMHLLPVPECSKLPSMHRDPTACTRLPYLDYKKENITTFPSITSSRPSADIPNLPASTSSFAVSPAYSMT
Described as above. On the procedure:
as §1

Test [3] has as its target T3, cynomolgus monkey MuSK (cynomolgus monkey, UniProt A0A2K5USF6 24-487). The description is as above. On the procedure: as §1
Test [4] has as its target T1, rat MuSK. Briefly: Biacore, MuSK on chip, association pH 7.4, dissociation pH 5.5. As for the experimental part: as §1
(§2) In order to study pH dependent binding of our antibodies to MuSK, the same Biacore was used as above, but now dissociation was done at pH 5.5 instead of pH 7.4. […] The following conclusions could be drawn for the different variants: (1) 3B2g1m3 and 3B2g2m3 (m3 variants) show significant drop in affinity for MuSK for all species tested; (2) 3B2g1m2 and 3B2g2m2 (m2 variants) show some drop in affinity for MuSK; (3) 3B2g1m1, 3B2g2m1, 3B2g1m4, 3B2g2m4 (m1 and m4 variants) show no drop in affinity for MuSK for all species tested; and (4) for all clones there is no difference between g1 and g2 variants (VL methionine versus serine in CDR3).

The target of test [5] is T2, mouse MuSK. Described as above. As for the experimental part:
as §1, §2

In test [6] the target is T3, cynomolgus monkey MuSK. The test is described as above. As for the experimental part:
as §1, §2

The target in test [7] is T4, mouse MuSK, endogenous (C2C12 myotubes; neuromuscular synapses of mice) (mouse, UniProt Q61006 22-868).
T4 sequence (looked up): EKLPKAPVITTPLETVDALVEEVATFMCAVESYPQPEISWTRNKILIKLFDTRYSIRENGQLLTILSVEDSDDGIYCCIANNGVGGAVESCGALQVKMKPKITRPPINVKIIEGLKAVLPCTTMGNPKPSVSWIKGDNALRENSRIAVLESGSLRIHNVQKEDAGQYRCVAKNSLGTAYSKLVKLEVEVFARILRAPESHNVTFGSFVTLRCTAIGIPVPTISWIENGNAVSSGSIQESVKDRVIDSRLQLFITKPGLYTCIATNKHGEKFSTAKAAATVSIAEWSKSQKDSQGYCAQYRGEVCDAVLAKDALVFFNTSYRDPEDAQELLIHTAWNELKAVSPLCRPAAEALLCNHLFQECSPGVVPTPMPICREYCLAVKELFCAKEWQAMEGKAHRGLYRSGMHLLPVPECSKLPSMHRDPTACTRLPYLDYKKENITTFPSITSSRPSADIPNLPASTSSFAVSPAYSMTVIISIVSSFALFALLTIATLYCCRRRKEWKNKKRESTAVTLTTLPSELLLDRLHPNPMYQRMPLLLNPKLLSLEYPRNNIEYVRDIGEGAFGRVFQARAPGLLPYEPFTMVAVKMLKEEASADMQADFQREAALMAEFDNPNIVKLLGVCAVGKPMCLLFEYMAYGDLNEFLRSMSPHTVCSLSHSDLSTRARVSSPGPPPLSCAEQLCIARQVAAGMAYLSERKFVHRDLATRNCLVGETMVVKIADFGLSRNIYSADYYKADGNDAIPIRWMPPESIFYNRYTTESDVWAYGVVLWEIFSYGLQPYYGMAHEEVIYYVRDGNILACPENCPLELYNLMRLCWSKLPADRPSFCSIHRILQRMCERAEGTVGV
Briefly: cell-based or functional assay.

T3 sequence (A0A2K5USF6 entry or part of it): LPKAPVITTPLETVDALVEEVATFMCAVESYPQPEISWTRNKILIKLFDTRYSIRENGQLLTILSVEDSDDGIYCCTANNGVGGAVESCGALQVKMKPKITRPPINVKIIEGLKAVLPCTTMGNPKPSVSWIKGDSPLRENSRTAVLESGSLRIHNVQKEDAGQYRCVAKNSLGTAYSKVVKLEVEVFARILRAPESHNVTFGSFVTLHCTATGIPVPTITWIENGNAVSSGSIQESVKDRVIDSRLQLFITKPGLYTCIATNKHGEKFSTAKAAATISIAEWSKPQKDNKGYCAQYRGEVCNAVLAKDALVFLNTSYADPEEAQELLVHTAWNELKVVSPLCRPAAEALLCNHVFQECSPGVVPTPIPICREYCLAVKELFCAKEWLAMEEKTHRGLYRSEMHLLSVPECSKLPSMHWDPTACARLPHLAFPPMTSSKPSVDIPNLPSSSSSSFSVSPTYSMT

B1: 3B2g1m4 (antibody, human IgG1, V domains shown)
VH: EVQLLESGGGLVQPGGSLRLSCAASGFTFSDYGMSWVRQAPGKGLEWVSAIPWQGGSTYYKESVKGRFTISRDNSKNTLYLQMNSLRAEDTAVYYCAKRSGRIAFGALDAWGQGTLVTVSS
VL: QTVVTQEPSFSVSPGGTVTLTCGLSSGSVTSSNYPDWYQQTPGQAPRTLIYSTDSRHSGVPDRFSGSILGNKAALTITGAQADDESDYYCGLYMYSGSKNYVFGGGTKLTVL
notes: human IgG1-LALA backbone; produced in HEK293 cells
In general, koff refers to the rate constant with which the complex falls apart. The kon is a measure of how fast the partners come together. B1: the R0 amounted to 155 RU in test [1]; 192 RU in test [2]; 140 RU in test [3]; 171 RU in test [4]; 191 RU in test [5]; 146 RU in test [6]. The koff in test [1] was 0.00192 s⁻¹; in test [2], 0.00065 s⁻¹; in test [3] it was 0.00086 s⁻¹; in test [4] it was 0.00558 s⁻¹; in test [5], 0.00304 s⁻¹; in test [6], 0.00261 s⁻¹. Also, the kon amounted to 1.12e+06 M⁻¹ s⁻¹ in test [1]; 1.08e+06 M⁻¹ s⁻¹ in test [2]; 730000 M⁻¹ s⁻¹ in test [3]; 950000 M⁻¹ s⁻¹ in test [4]; 980000 M⁻¹ s⁻¹ in test [5]; 680000 M⁻¹ s⁻¹ in test [6]. Moreover, the “MuSK phosphorylation in C2C12 myotubes” value in test [7] was ~58 % of 1 nM agrin.

B2: 3B2g2m2 (antibody, human IgG1, V domains shown)
VH: EVQLLESGGGLVQPGGSLRLSCAASGFTFSDYGMSWVRQAPGKGLEWVSAIPGSGGSTYYKESVKGRFTISRDNSKNTLYLQMNSLRAEDTAVYYCAKRSGRIAFGALDAWGQGTLVTVSS
VL: QTVVTQEPSFSVSPGGTVTLTCGLSSGSVTSSNYPDWYQQTPGQAPRTLIYSTDSRHSGVPDRFSGSILGNKAALTITGAQADDESDYYCGLYSYSGSKNYVFGGGTKLTVL
notes: as for B1
In the case of B2, the R0 in test [1] was 130 RU; in test [2] it was 158 RU; in test [3], 136 RU; in test [4], 145 RU; in test [5], 153 RU; in test [6], 146 RU. Besides, the koff in test [1] is 0.00281 s⁻¹; in test [2], 0.00231 s⁻¹; in test [3] it was 0.00179 s⁻¹; in test [4], 0.0973 s⁻¹; in test [5] it was 0.0882 s⁻¹; in test [6], 0.00326 s⁻¹. The kon in test [1] came to 1.56e+06 M⁻¹ s⁻¹; in test [2], 1.71e+06 M⁻¹ s⁻¹; in test [3] it was 890000 M⁻¹ s⁻¹; in test [4], 40000 M⁻¹ s⁻¹; in test [5], 210000 M⁻¹ s⁻¹; in test [6] it was 860000 M⁻¹ s⁻¹. The “MuSK phosphorylation in C2C12 myotubes” value in test [7] is ~80 % of 1 nM agrin.

B3: 3B2g2m4 (antibody, human IgG1, V domains shown)
VH: EVQLLESGGGLVQPGGSLRLSCAASGFTFSDYGMSWVRQAPGKGLEWVSAIPWQGGSTYYKESVKGRFTISRDNSKNTLYLQMNSLRAEDTAVYYCAKRSGRIAFGALDAWGQGTLVTVSS
VL: QTVVTQEPSFSVSPGGTVTLTCGLSSGSVTSSNYPDWYQQTPGQAPRTLIYSTDSRHSGVPDRFSGSILGNKAALTITGAQADDESDYYCGLYSYSGSKNYVFGGGTKLTVL
notes: as for B1
For B3, the R0 in test [1] was found to be 158 RU; in test [2], 193 RU; in test [3] it was 142 RU; in test [4] it was 172 RU; in test [5], 191 RU; in test [6], 148 RU. The koff in test [1] was 0.00196 s⁻¹; in test [2], 0.00064 s⁻¹; in test [3], 0.00088 s⁻¹; in test [4] it was 0.00538 s⁻¹; in test [5] it was 0.003 s⁻¹; in test [6] it was 0.00256 s⁻¹. Besides, the kon in test [1] was determined as 1.19e+06 M⁻¹ s⁻¹; in test [2], 1.15e+06 M⁻¹ s⁻¹; in test [3], 790000 M⁻¹ s⁻¹; in test [4] it was 1.02e+06 M⁻¹ s⁻¹; in test [5] it was 1.04e+06 M⁻¹ s⁻¹; in test [6], 750000 M⁻¹ s⁻¹. The “MuSK phosphorylation in C2C12 myotubes” value in test [7] was ~58 % of 1 nM agrin.

Values taken from US20230151091A1 (NEW YORK UNIVERSITY, published 2023).
